Laboratory results from patent US20120130045A1, “BIOMOLECULE-POLYMER CONJUGATES AND METHODS OF MAKING SAME” (ABLITECH, INC., priority 2009, published 2012).

How the values were obtained:
[1] = test system: bacterial 16S ribosomal RNA gene; assay: PCR amplification with 8F primer conjugates, gel electrophoresis; type: biochemical
Text: The retention and recovery of the original functionality of the biomolecule is a characteristic of the conjugates of the disclosure. In order to test the ability of an oligonucleotide-polymer conjugate of the disclosure to functionally bind its complementary sequence, PCR primers were utilized. The universal bacterial primers 8F (5′-[…]-3′, SEQ ID NO:2) and 1392R (5′-ACGGGCGGTGTGTACA-3′, SEQ ID NO:3) were used to amplify a portion of the bacterial 16S ribosomal RNA gene. The 8F primer conjugated to MPEG-550 networked with MPEG-550 were prepared according to Examples 7 and 9 above, and subjected to DNase I degradation studies.
The MPEG550 conjugate and the MPEG550-networked-conjugate were then treated with NH4OH to release the PCR primers from the MPEG550 via chemical degradation and PCR amplification was then performed. Each 50-μl PCR mixture contained 1 μl template DNA (either E. coli. or an environmental isolate belonging to the genus Streptomonospora), 2 U Taq DNA polymerase (Eppendorf), 1×Taq buffer, […] Mg(OAc)2, 1×Taq Master PCR Enhancer, each deoxynucleoside triphosphate at a concentration of 20 μM, and each primer at a concentration of 0.4 μM. The PCR conditions were 85° C. for 5 min, 30 cycles of 94° C. for 45 s, 55° C. for 1 min, and 72° C. for 90 s, with a final 7 min extension at 72° C.

DNase I = DNase I digestion monitored by TLC; type: in vitro ADME; details: for DNase I digestion after six hours (TLC, FIG. 6): model oligonucleotide
Text: Nucleases and proteases are common and result in extremely short half-life for biomolecules not protected from the in vivo environment. In addition, carboxylesterases (CES) are known to be present in many cancerous tumor cells. Therefore, the ability of the biomolecule-polymer conjugates of the disclosure to withstand degradation in the presence of fetal calf serum (FCS) and either DNase I, or 51 nuclease is investigated, as well as the ability of carboxylesterase 1 to degrade the biomolecule-polymer conjugates and release the biomolecule.
Concentrations of treatments were as follows: FCS (30%), DNase I (30 units), 51 nuclease (10 units). Digestions were conducted at 37° C. and monitored by either thin layer chromatography or gel electrophoresis.

Row | Substance | PCR amplification product after NH4OH treatment (1% agarose gel) ([1]; conjugate cleaved in NH4OH for 15 minutes and 18 hours before PCR) | PCR amplification product (1% agarose gel) ([1]; each primer 0.4 μM, with 1392R primer, 30 cycles) | DNase I digestion after one hour (TLC, FIG. 9) (DNase I; 8F PCR primer conjugates, DNase I, one hour) | DNase I digestion after one hour (TLC, FIG. 5) (DNase I; DNase I 30 units, 37° C., one hour, model oligonucleotide of Example 1) | DNase I digestion after six hours (TLC, FIG. 6) (DNase I; DNase I 30 units, 37° C.) | DNase I digestion after 3 hours following NH4OH treatment (TLC, FIG. 7) (DNase I; conjugate treated with NH4OH to cleave the L-X bond, then DNase I, 3 hours)
1 | MPEG550 conjugate: universal bacterial 8F PCR primer (SEQ ID NO:2) conjugated to MPEG-550 according to Example 7 (DNA AGAGTTTGATCCTGGCTCAG; primer conjugated to MPEG-550, position not given here) | yielded the appropriate size amplification product | functional and yielded the appropriate size amplification product | resistant to nuclease degradation | – | – | –
2 | oligonucleotide-MPEG conjugate: model oligonucleotide of Example 1 (SEQ ID NO:1) conjugated to MPEG550 (methoxy-terminated PEG, MW 550) (TTTTATTTTATTTTATTTTA; DNA, backbone not given here; conjugated to MPEG550 via propargyl chloroformate chemistry, further chemistry not fully specified) | – | – | – | resistant to DNase I treatment | remained intact | allowed for degradation by DNase I
3 | 5′-TTTTATTTTATTTTATTTTA-3′ (model oligonucleotide, sugar chemistry not given here, further chemistry not given here) [native model oligonucleotide, reference compound] | – | – | – | – | completely digested | –
